Measurements: paper doi:10.1101/684100 (bioRxiv, 2019)

Molecular target: EDB (+)-fibronectin in murine tumor sections (Mus musculus, UniProt P11276)
Test: immunostaining of cells or tissue

EDB (+)-fibronectin in murine tumor sections, sequence (P11276 33-2477): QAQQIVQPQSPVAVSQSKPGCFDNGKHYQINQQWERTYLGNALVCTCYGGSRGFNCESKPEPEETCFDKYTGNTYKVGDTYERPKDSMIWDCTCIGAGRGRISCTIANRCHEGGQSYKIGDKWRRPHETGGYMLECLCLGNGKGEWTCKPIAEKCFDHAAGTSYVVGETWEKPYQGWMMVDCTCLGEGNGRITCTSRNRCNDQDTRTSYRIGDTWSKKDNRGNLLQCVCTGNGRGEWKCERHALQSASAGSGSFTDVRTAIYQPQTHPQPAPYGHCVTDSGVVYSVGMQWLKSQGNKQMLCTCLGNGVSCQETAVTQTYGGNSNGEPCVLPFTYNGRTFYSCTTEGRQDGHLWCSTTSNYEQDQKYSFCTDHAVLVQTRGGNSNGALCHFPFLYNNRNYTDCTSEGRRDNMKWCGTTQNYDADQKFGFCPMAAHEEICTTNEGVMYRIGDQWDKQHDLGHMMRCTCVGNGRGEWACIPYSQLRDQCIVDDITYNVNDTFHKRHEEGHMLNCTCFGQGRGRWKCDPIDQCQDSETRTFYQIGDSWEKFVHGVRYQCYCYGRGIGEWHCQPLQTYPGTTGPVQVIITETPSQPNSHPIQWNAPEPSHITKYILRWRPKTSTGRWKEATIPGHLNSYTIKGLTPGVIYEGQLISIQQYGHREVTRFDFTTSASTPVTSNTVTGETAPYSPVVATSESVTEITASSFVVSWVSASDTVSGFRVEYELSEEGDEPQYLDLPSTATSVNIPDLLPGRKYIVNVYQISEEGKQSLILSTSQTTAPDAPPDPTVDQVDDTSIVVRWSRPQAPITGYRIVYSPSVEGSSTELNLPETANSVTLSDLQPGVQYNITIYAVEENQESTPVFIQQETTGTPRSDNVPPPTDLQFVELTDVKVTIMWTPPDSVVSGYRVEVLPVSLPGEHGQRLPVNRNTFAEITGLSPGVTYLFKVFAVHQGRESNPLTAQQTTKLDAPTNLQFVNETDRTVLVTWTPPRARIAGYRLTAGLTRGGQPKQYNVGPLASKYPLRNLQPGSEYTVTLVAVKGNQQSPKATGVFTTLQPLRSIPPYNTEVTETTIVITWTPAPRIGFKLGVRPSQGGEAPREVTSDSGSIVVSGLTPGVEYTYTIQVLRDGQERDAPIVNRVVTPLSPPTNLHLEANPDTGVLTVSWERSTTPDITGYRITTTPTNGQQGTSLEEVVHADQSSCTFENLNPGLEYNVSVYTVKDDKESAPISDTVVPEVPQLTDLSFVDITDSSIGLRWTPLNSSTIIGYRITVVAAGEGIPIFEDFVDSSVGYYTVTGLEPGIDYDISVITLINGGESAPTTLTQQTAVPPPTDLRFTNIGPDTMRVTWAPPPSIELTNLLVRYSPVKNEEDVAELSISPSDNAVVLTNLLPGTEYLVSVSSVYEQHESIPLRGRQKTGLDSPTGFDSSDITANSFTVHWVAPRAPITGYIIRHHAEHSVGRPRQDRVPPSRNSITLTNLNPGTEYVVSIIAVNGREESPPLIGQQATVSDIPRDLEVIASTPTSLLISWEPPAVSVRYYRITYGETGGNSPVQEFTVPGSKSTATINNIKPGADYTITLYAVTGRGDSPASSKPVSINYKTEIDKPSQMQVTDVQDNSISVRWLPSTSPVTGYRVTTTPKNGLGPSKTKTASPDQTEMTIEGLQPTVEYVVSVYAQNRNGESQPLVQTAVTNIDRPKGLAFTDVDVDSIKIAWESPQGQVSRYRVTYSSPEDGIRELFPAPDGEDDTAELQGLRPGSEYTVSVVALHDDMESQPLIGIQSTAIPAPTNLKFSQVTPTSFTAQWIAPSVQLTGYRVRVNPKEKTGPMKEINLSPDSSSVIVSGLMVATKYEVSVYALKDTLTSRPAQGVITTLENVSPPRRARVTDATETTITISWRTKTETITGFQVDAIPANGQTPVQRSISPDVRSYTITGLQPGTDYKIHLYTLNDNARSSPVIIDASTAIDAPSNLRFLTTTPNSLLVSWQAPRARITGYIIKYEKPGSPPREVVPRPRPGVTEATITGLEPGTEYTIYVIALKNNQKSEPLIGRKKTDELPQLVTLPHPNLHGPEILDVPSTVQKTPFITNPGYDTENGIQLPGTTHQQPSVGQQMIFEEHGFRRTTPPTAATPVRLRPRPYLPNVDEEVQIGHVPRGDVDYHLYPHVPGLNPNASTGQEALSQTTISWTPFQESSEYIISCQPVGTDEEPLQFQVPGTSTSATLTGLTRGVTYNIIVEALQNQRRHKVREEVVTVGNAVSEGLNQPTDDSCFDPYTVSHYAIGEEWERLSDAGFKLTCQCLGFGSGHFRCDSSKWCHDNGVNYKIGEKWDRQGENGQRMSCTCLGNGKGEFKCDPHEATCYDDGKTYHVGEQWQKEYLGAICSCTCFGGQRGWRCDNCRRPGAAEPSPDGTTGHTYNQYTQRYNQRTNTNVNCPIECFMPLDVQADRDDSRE

B1: FITC-labeled L19 IgG1 (antibody, V domains shown)
VH: EVQLLESGGGLVQPGGSLRLSCAASGFTFSSFSMSWVRQAPGKGLEWVSSISGSSGTTYYADSVKGRFTISRDNSKNTLYLQMNSLRAEDTAVYYCAKPFPYFDYWGQGTLVTVSS
VL: EIVLTQSPGTLSLSPGERATLSCRASQSVSSSFLAWYQQKPGQAPRLLIYYASSRATGIPDRFSGSGSGTDFTLTISRLEPEDFAVYYCQQTGRIPPTFGQGTKVEIK
Does B1 bind?
Result: binds
